Laboratory results as given in US9822336B2, “Blastoid, cell line based artificial blastocyst” (Universiteit Maastricht, priority 2013, dated 2017).

B1: Wnt3a: Wnt ligand (protein, UniProt P56704 19-352, looked up)
Protein Wnt-3a: SYPIWWSLAVGPQYSSLGSQPILCASIPGLVPKQLRFCRNYVEIMPSVAEGIKIGIQECQHQFRGRRWNCTTVHDSLAIFGPVLDKATRESAFVHAIASAGVAFAVTRSCAEGTAAICGCSSRHQGSPGKGWKWGGCSEDIEFGGMVSREFADARENRPDARSAMNRHNNEAGRQAIASHMHLKCKCHGLSGSCEVKTCWWSQPDFRAIGDFLKDKYDSASEMVVEKHRESRGWVETLRPRYTYFKVPTERDLVYYEASPNFCEPNPETGSFGTRDRTCNVSSHGIDGCDLLCCGRGHNARAERRREKCRCVFHWCCYVSCQECTRVYDVHTCK
B2: HB-EGF: a protein and a growth factor known in the art to activate the MAPK signalling pathway (protein, UniProt Q99075 63-148, looked up)
Heparin-binding EGF-like …: DLQEADLDLLRVTLSSKPQALATPNKEEHGKRKKKGKGLGKKRDPCLRKYKDFCIHGECKYVKELRAPSCICHPGYHGERCHGLSL
modifications: Heparin-binding EGF-like growth factor

Legend:
ES-TS cell clusters = assay: Cavitation of ES-TS cell clusters (yield of cavitated blastoids); assay type: cell-based, mouse; conditions: FIG. 4h; CHIR99021 at 3 uM
Description: FIG. 4c: […], The yield of cavitated blastoids is described by the percentage of ES-TS cell clusters that were cavitated after 96 hours of culture, thus forming an artificial blastocyst or blastoid. […]
The efficiency of blastoid formation is measured as the percentage of cavitated structures with (1) an external cellular layer expressing the transcription factors CDX2, Eomes and GATA3 and (2) an internal cellular aggregate expressing the transcription factors Oct4 and Sox2 and at least partly Nanog.
The formation of a cavity is assessed by the formation of a volume within the aggregate that is not occupied by cellular nucleus. The formation of a cavity is preferably assessed using the cross-sectional section of a cellular aggregate stained with a nuclear-specific dye (for example DAPI).
• Double layer formation: the formation of an (at least) double layered cell aggregate with an external layer of TS cells and an inner layer of ES cells is evaluated using transgenic cell lines. […] The H2B-RFP ES cells are thus constitutively expressing a red fluorescence within their nucleus which allows for their tracking. • TS cells were derived from a mouse constitutively expressing Green Fluorescent Protein (GFP) under the control of a cytomegalovirus promoter in all cells. […]

[1] = test system: Cdx2 expression in trophoblast stem cells of ES-TS aggregates; assay: Cdx2 expression by CDX2 immunostaining; assay type: cell-based, mouse; conditions: CDX2 immunostaining (FIG. 4g)
Description: • Double layer formation: the formation of an (at least) double layered cell aggregate with an external layer of TS cells and an inner layer of ES cells is evaluated using transgenic cell lines. Specifically, ES cells were transfected with Histone 2B and a Red Fluorescent Protein under the control of a cytomegalovirus promoter and clonally derived. The H2B-RFP ES cells are thus constitutively expressing a red fluorescence within their nucleus which allows for their tracking. • TS cells were derived from a mouse constitutively expressing Green Fluorescent Protein (GFP) under the control of a cytomegalovirus promoter in all cells. The GFP TS cells are thus expressing a green fluorescence in their cytoplasma which allows for their tracking. • The formation of a double-layered aggregate is thus assessed by observing a green outer layer of cells and a red inner layer of cells. The efficiency of engulfment is determined as the percentage of green-colored projection area (representing the TS cell layer) that overlaps with an artificial 3-pixel-wide ring drawn around the red-colored projection area (representing the inner aggregate of ES cells) after 24 hours of culturing the ES-TS cell clusters. […] The formation of a cavity is preferably assessed using the cross-sectional section of a cellular aggregate stained with a nuclear-specific dye (for example DAPI). […]

Molecule | yield of cavitated blastoids / cavitation (ES-TS cell clusters) | Cdx2 expression [1]
B1 | increases the yield of cavitated blastoids | 
B2 |  | positively correlates with an increase of Cdx2 expression
